In one test the target is human FcRn (human, UniProt P55899 24-290; P61769 21-119, limits assumed). Description: SPR 25C pH 6.0, steady state.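 Also: antibody captured on chip via anti-human Fab-lambda ligand, human FcRn injected as analyte in 50 mM phosphate buffer with 150 mM NaCl and P20.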
Test [1] concerns the target T1, hFcgRIIIaV (human, UniProt P08637 17-208).
T1 construct: extracellular domain; also called human FcγRIIIa allotype V158
Description: SPR 25C.
Description: (§1) Biacore T200 (GE Healthcare) was used to evaluate the binding activity to the respective human Fcγ receptor (hereafter referred to as FcγR). Measurement was performed at 25° C. using 50 mM phosphate, 150 mM NaCl, 0.05 w/v %-P20, pH 7.4 as buffer. About 1000 RU of antibody was captured using a sensor chip immobilized with CaptureSelect™ Human Fab-lambda Kinetics Biotin Conjugate (Thermo Fisher Scientific) as a molecule for ligand capturing. Human FcγR was diluted to 8 nM for FcγRIa and 1000 nM for other FcγR in the measurement buffer, and it was interacted to the captured antibody. The binding activity of each antibody to FcγR was assessed by calculating the binding amount of FcγR (RU) per unit amount of antibody using Biacore T200 Evaluation Software 2.0.

Test [2] concerns the target T2, hFcgRIIIaF (human, UniProt P08637 17-208).
T2 construct: extracellular domain; also called human FcγRIIIa allotype F158
In words: SPR 25C.
Description: as §1

In test [3] the target is T3, hFcgRIIb (human, UniProt P31994 43-217).
T3 construct: extracellular domain; also called human FcγRIIb
T3 sequence (looked up): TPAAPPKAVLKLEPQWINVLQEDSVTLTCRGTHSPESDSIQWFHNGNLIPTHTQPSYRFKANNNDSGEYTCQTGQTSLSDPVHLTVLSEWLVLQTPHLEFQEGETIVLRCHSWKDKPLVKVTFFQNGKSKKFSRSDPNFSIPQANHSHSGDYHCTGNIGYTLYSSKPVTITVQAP
In words: SPR 25C.
Description: as §1

For test [4], the target named is T4, hFcgRIIaH (human, UniProt P12318 34-217).
T4 construct: extracellular domain; also called human FcγRIIa type H (H131)
T4 sequence (looked up): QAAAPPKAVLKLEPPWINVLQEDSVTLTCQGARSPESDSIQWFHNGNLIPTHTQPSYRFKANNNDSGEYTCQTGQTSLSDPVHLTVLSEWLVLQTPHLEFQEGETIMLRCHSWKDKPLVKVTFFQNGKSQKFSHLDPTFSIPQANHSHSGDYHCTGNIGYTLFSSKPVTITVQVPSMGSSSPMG
Description: SPR 25C.
Description: as §1

The target in test [5] is T5, hFcgRIIaR (human, UniProt P12318 34-217).
T5 construct: extracellular domain; also called human FcγRIIa type R (R131)
T5 sequence (looked up): T4 sequence (looked up) with H134R
In words: SPR 25C.
Description: as §1

The target of test [6] is T6, hFcgRIa (human, UniProt P12314 16-292).
T6 construct: extracellular domain; also called human FcγRIa; FcγRI
In words: SPR 25C.
Description: as §1

Test [7] has as its target T1, hFcgRIIIaV. Description: SPR 25C; relative to A375-G1T3/B167-Lamlib.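 Also: SPR with antibody captured on an anti-human Fab-lambda chip, human FcγR analyte at 8 nM for FcγRIa or 1000 nM for the others, pH 7.4, FcγR RU per captured antibody unit.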
Description: as §1
For test [8], the target named is T2, hFcgRIIIaF. In words: SPR 25C; relative to A375-G1T3/B167-Lamlib.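 Also: SPR with antibody captured on an anti-human Fab-lambda chip, human FcγR analyte at 8 nM for FcγRIa or 1000 nM for the others, pH 7.4, FcγR RU per captured antibody unit.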
Description: as §1
The target in test [9] is T3, hFcgRIIb. In words: SPR 25C; relative to A375-G1T3/B167-Lamlib.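 Also: SPR with antibody captured on an anti-human Fab-lambda chip, human FcγR analyte at 8 nM for FcγRIa or 1000 nM for the others, pH 7.4, FcγR RU per captured antibody unit.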
Description: as §1
Test [10] addresses T4, hFcgRIIaH. Description: SPR 25C; relative to A375-G1T3/B167-Lamlib.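 Also: SPR with antibody captured on an anti-human Fab-lambda chip, human FcγR analyte at 8 nM for FcγRIa or 1000 nM for the others, pH 7.4, FcγR RU per captured antibody unit.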
Description: as §1
In test [11] the target is T5, hFcgRIIaR. In words: SPR 25C; relative to A375-G1T3/B167-Lamlib.
Description: as §1
Test [12] concerns the target T6, hFcgRIa. In words: SPR 25C; relative to A375-G1T3/B167-Lamlib.
Description: as §1

Changes are numbered by the printed parent chain.
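For binding per 1RU of antibody in this document: biacore SPR with antibody captured on an anti-human Fab lambda chip, human FcγR injected at 1000 nM (FcγRIa at 8 nM) in pH 7.4 phosphate buffer.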

T6 sequence (P12314 16-292): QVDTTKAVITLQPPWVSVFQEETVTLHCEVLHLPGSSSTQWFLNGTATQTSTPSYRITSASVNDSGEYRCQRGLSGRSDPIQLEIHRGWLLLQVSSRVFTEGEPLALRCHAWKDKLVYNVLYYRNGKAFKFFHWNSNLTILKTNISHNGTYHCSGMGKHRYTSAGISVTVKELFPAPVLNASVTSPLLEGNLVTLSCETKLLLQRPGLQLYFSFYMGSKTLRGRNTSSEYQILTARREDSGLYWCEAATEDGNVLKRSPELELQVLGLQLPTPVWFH
Sequence of human FcRn (P55899 24-290 limits assumed, chain 1 of 2): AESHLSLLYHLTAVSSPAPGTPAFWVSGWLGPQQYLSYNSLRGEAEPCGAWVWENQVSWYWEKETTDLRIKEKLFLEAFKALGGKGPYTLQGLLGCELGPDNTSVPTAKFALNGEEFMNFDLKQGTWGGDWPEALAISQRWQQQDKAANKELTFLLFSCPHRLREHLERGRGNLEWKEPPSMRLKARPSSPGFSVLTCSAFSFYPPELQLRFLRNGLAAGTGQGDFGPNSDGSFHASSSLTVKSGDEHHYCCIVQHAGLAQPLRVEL
Sequence of human FcRn (P61769 21-119 limits assumed, chain 2 of 2): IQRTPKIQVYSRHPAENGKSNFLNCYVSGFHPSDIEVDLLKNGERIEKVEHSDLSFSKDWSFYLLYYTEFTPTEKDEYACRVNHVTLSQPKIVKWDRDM
T1 sequence (P08637 17-208 F176V): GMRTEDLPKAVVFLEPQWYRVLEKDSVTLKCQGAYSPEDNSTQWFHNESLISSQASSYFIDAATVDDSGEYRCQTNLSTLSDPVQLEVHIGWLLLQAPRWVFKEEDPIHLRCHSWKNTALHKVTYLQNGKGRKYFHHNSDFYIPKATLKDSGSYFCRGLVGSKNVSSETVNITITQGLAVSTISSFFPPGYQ
T2 sequence (P08637 17-208): as the sequence (P08637 17-208 F176V) above, with V160F counted along it
Description for human FcRn: Biacore T200 (GE Healthcare) was used to assess the binding activity to human FcRn. Measurement was performed at 25° C. using 50 mM phosphate, 150 mM NaCl, 0.05 w/v %-P20, pH 6.0 as buffer. […] About 400 RU of antibody was captured using a sensor chip immobilized with CaptureSelect™ Human Fab-lambda Kinetics Biotin Conjugate (Thermo Fisher Scientific) as a molecule for ligand capturing, followed by the binding of human FcRn diluted in measuring buffer. The activity of the respective antibodies to bind FcRn was assessed by calculating KD (mol/L) by the steady-state model using Biacore T200 Evaluation Software 2.0.

B1: A375-SCF032/B167-Lamlib (antibody, human IgG1, lambda)
heavy: EVQLVESGGGLVKPGGSLRLSCAASGFTFSTFTMNWVRQAPGKGLEWVSSISSKSTYIEYADSFKVRFTISRDNAKNSLYLQMNSLRAEDTAVYYCARYGAKNFLNWVFDYWGQGTLVTVSSASTKGPSVFPLAPSSKSTSGGTAALGCLVKDYFPEPVTVSWNSGALTSGVHTFPAVLQSSGLYSLSSVVTVPSSSLGTQTYICNVNHKPSNTKVDKKVEPKSCDKTHTCPPCPAPEYLGGDSVFLFPPKPKDVLMISRTPEVTCVVIDVSHEDPEVKFNWYVDGVEVHNAKTKPREEQYNSTYRVVSVLPVLHRDWLNGKEYKCKVSNKALPKPIEKTISKAKGQRREPQVYTLPPSREEMTKNQVSLTCLVKGFYPSDIAVEWESNGQPENNYKTTPPVLDSDGSFFLYSKLTVDKSRWQQGNVFSCSVMHEALHNHYTQKSLSLSP
light: QSALTQPPSASGSPGQTVTISCTGTRYDVGYYEYVSWYQQHPGKAPKLMIYETSKRLSGVPDRFSGSKSGNTASLTVSGLQAEDEADYYCSSYRYEHQVSFGGGTKLTVLGQPKAAPSVTLFPPSSEELQANKATLVCLISDFYPGAVTVAWKADSSPVKAGVETTTPSKQSNNKYAASSYLSLTPEQWKSHRSYSCQVTHEGSTVEKTVAPTECS
Consider B1, for which the Kd (in general, the free concentration of one partner at which half of the binding sites on the other are occupied at equilibrium, for simple one-to-one binding) with human FcRn amounted to 0.966 µM. In addition, the “binding per 1RU of antibody” value with hFcgRIIIaV [1] is -0.0007 RU; with hFcgRIIIaF [2], -0.0007 RU; in the test with hFcgRIIb [3] it was 0.0782 RU; with hFcgRIIaH [4], 0.003 RU; with hFcgRIIaR [5], -0.0004 RU; with hFcgRIa [6], 0.0049 RU. The relative binding amount with hFcgRIIIaV [7] is -0.01; with hFcgRIIIaF [8] it was -0.03; with hFcgRIIb [9] it was 7.14; in the test with hFcgRIIaH [10], 0.05; with hFcgRIIaR [11], -0.01; with hFcgRIa [12] it was 0.06.

B2: A375-SCF041a/B167-Lamlib (antibody, human IgG1, lambda)
heavy: B1 heavy with K219R, Y239L, G241N, D243P, V255T, I269V, H273D, P312T, R316Q
light: B1 light
With B2, the affinity with human FcRn, expressed as Kd, was 1.1 µM. Further, the “binding per 1RU of antibody” value is 0.0022 RU in the test with hFcgRIIIaV [1]; 0.0009 RU in the test with hFcgRIIIaF [2]; 0.0433 RU in the test with hFcgRIIb [3]; 0.0571 RU with hFcgRIIaH [4]; 0.0376 RU with hFcgRIIaR [5]; 0.0446 RU in the test with hFcgRIa [6]. Besides, the relative binding amount in the test with hFcgRIIIaV [7] was determined as 0.03; in the test with hFcgRIIIaF [8], 0.04; in the test with hFcgRIIb [9], 3.95; with hFcgRIIaH [10], 1.01; in the test with hFcgRIIaR [11] it was 0.81; in the test with hFcgRIa [12], 0.55.

B3: A375-SCF042a/B167-Lamlib (antibody, human IgG1, lambda)
heavy: EVQLVESGGGLVKPGGSLRLSCAASGFTFSTFTMNWVRQAPGKGLEWVSSISSKSTYIEYADSFKVRFTISRDNAKNSLYLQMNSLRAEDTAVYYCARYGAKNFLNWVFDYWGQGTLVTVSSASTKGPSVFPLAPSSKSTSGGTAALGCLVKDYFPEPVTVSWNSGALTSGVHTFPAVLQSSGLYSLSSVVTVPSSSLGTQTYICNVNHKPSNTKVDKRVEPKSCDKTHTCPPCPAPELLNGPSVFLFPPKPKDTLMISRTPEVTCVVVDVSDEDPEVKFNWYVDGVEVHNAKTKPREEQYNSTYRVVSVLTVLHQDWLNGKEYKCKVSNKALPKPIEKTISKAKGQPREPQVYTLPPSREEMTKNQVSLTCLVKGFYPSDIAVEWESNGQPENNYKTTPPVLDSDGSFFLYSKLTVKKSRWQQGNVFSCSVMHEALHNHYTQKSLSLSP
light: B1 light
notes: copies: 2 + 2
Regarding B3, in the test with human FcRn, the Kd stood at 1.49 µM. In addition, the “binding per 1RU of antibody” value with hFcgRIIIaV [1] is 0.0014 RU; with hFcgRIIIaF [2], 0.0003 RU; with hFcgRIIb [3], 0.0393 RU; in the test with hFcgRIIaH [4] it was 0.0522 RU; with hFcgRIIaR [5] it was 0.0327 RU; with hFcgRIa [6] it was 0.0396 RU. In addition, the relative binding amount with hFcgRIIIaV [7] stood at 0.02; with hFcgRIIIaF [8], 0.01; in the test with hFcgRIIb [9], 3.59; with hFcgRIIaH [10], 0.92; in the test with hFcgRIIaR [11], 0.71; in the test with hFcgRIa [12] it was 0.49.

B4: A375-SCF040/B167-Lamlib (antibody, human IgG1, lambda)
heavy: B3 heavy with R219K, L240W, Q300L, K331T
light: B1 light
notes: copies: 2 + 2
Regarding B4, the Kd with human FcRn came to 1.46 µM. The “binding per 1RU of antibody” value in the test with hFcgRIIIaV [1] was determined as 0.0013 RU; with hFcgRIIIaF [2] it was 0.001 RU; with hFcgRIIb [3], 0.0465 RU; with hFcgRIIaH [4] it was 0.0454 RU; in the test with hFcgRIIaR [5] it was 0.0446 RU; with hFcgRIa [6], 0.0016 RU. Besides, the relative binding amount came to 0.02 with hFcgRIIIaV [7]; 0.05 with hFcgRIIIaF [8]; 4.24 with hFcgRIIb [9]; 0.8 with hFcgRIIaH [10]; 0.96 with hFcgRIIaR [11]; 0.02 with hFcgRIa [12].

B5: A375-SCF039a/B167-Lamlib (antibody, human IgG1, lambda)
heavy: B3 heavy with L240W, Q300L, K331T, P348R, K418D
light: B1 light
B5 yielded a Kd with human FcRn of 1.11 µM. Besides, the “binding per 1RU of antibody” value was 0.0013 RU in the test with hFcgRIIIaV [1]; 0.0012 RU with hFcgRIIIaF [2]; 0.054 RU in the test with hFcgRIIb [3]; 0.0542 RU with hFcgRIIaH [4]; 0.0554 RU in the test with hFcgRIIaR [5]; 0.0018 RU in the test with hFcgRIa [6]. In addition, the relative binding amount with hFcgRIIIaV [7] came to 0.02; in the test with hFcgRIIIaF [8] it was 0.06; with hFcgRIIb [9], 4.93; with hFcgRIIaH [10], 0.96; with hFcgRIIaR [11], 1.2; with hFcgRIa [12] it was 0.02.

B6: A375-SCF041aPh/B167-Lamlib (antibody, human IgG1, lambda)
heavy: B3 heavy with L240W, P348R, K418D
light: B1 light
Turning to B6, in the test with human FcRn, the Kd worked out at 1.13 µM. Moreover, the “binding per 1RU of antibody” value was 0.0005 RU in the test with hFcgRIIIaV [1]; 0.0007 RU with hFcgRIIIaF [2]; 0.035 RU with hFcgRIIb [3]; 0.0371 RU with hFcgRIIaH [4]; 0.0371 RU with hFcgRIIaR [5]; 0.0013 RU with hFcgRIa [6]. Besides, the relative binding amount with hFcgRIIIaV [7] is 0.01; in the test with hFcgRIIIaF [8], 0.03; with hFcgRIIb [9] it was 3.2; in the test with hFcgRIIaH [10], 0.65; in the test with hFcgRIIaR [11] it was 0.8; with hFcgRIa [12], 0.02.

B7: A375-SCF033/B167-Lamlib (antibody, human IgG1, lambda)
heavy: B1 heavy with G242D, I269V
light: B1 light
B7 had a Kd with human FcRn of 0.874 µM. The “binding per 1RU of antibody” value turned out to be 0.0002 RU in the test with hFcgRIIIaV [1]; 0 RU with hFcgRIIIaF [2]; 0.0979 RU with hFcgRIIb [3]; 0.0103 RU with hFcgRIIaH [4]; 0.0255 RU with hFcgRIIaR [5]; 0.0033 RU in the test with hFcgRIa [6]. The relative binding amount was found to be 0 with hFcgRIIIaV [7]; 0 with hFcgRIIIaF [8]; 8.94 with hFcgRIIb [9]; 0.18 with hFcgRIIaH [10]; 0.55 with hFcgRIIaR [11]; 0.04 with hFcgRIa [12].

B8: A375-SCF039/B167-Lamlib (antibody, human IgG1, lambda)
heavy: B3 heavy with R219K, L240W, Q300L, K331T, P348R, K418D
light: B1 light
Turning to B8, in the test with human FcRn, binding was characterised by a dissociation constant (Kd) of 1.09 µM. In addition, the “binding per 1RU of antibody” value with hFcgRIIIaV [1] is 0.0013 RU; with hFcgRIIIaF [2] it was 0.0008 RU; in the test with hFcgRIIb [3], 0.0531 RU; with hFcgRIIaH [4], 0.0535 RU; with hFcgRIIaR [5] it was 0.0542 RU; in the test with hFcgRIa [6] it was 0.0018 RU. The relative binding amount with hFcgRIIIaV [7] turned out to be 0.02; in the test with hFcgRIIIaF [8], 0.04; with hFcgRIIb [9] it was 4.85; with hFcgRIIaH [10] it was 0.94; with hFcgRIIaR [11], 1.17; in the test with hFcgRIa [12], 0.02.
